Results as given in patent publication US20230159643A1.

Biological target: Sortilin SORTECD_HIS (human) (UniProt Q99523)
Experiment: HTRF: displacement of PGRN binding to His-tagged Sortilin ECD

Sequence of Sortilin SORTECD_HIS (human) (Q99523 other isoform, or with tags, fused parts or gaps limits assumed): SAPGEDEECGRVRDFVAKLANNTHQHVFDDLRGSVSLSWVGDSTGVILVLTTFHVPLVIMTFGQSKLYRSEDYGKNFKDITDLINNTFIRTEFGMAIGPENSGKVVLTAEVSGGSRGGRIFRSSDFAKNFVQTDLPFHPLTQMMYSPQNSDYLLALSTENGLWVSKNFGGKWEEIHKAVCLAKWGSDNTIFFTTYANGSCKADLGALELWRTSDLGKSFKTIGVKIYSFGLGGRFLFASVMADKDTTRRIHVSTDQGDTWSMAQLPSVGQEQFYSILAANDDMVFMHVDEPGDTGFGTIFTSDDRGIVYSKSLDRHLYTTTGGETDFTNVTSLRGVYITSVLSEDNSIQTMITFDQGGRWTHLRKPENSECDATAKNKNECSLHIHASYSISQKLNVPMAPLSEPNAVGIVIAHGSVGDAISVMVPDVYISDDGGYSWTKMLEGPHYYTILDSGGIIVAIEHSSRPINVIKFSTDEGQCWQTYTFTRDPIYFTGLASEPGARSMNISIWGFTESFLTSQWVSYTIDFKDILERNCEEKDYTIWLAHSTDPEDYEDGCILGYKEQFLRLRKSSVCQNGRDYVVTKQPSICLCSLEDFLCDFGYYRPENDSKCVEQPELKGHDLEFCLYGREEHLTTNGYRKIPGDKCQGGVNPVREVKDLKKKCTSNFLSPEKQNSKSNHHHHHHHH

IC50: > 1 µM
Substance: IgG1-b12 (antibody)
